Source: patent publication US20250136683A1 (SINOMAB BIOSCIENCE, published 2025)

Assays:
[1] = biological target: LRID Fab fused to the GPI signal sequence from decay accelerating factor (DAF), on SP2/0 cells (Fab-GPI); test: cell-based or functional assay
[2] = biological target: LRID Fab fused to the transmembrane portion of glycophorin A, on SP2/0 cells (Fab-GlycoA); test: cell-based or functional assay
[3] = biological target: T1, LRID (murine IgG anti-idiotype antibody against the antigen binding site of SM03 and SM06); test: direct ELISA, plate coated with LRID
T1 construct: An scFv from a phage library, re-engineered as a murine IgG; also called anti-idiotype antibody for SM03; surrogate antigen for CD22

[4] = biological target: T2, recombinant human CD22 encompassing domains 2-4 (CD22d2-4) (human, UniProt P20273 139-417); test: ELISA, plate coated with refolded CD22d2-4, % Binding
T2 construct: also called domain 2-4 of recombinant human CD22 antigen
Protocol: Preliminary epitope mapping was done by expressing different combinations of extracellular domains encompassing the human CD22 sequence in bacteria and the refolded recombinant proteins were tested for binding to SM03 in an ELISA assay. […] There are 6 extracellular domains for human CD22 antigen that are expressed on the surface of matured B cells. […] Briefly, the DNA sequence encoding different domain regions of human CD22 were cloned into a pET bacterial expression vector preceded with a pelB sequence (as described in Ward et al. (1989) Nature 341:544-546). The expression vectors were used to transform bacterial host cell BL21 (DE3) pLysS (Promega, Madison, WI) using standard techniques in molecular biology: expression of the transfected genes were induced by the addition of 1 mM of isopropyle β-D-thiogalactoside (IPTG). After incubating at 37° C. for 4 hours with orbital shaking at 250 rpm, the bacteria were pelleted by centrifugation at 6,000 rpm for 15 minutes. Cells were lysed in lysis buffer (50 mM Tris-HCl, pH 8 containing 0.1 M NaCl, 5 mM EDTA, 0.1% NaN₃, 0.5% TritonX-100, 100 μM PMSF and 1 mM DTT) with the aid of a glass homogenizer. After French press treatment, 2.5 mM MgCl₂ was added to chelate the EDTA, and 0.1 mg/ml Lysozyme and 0.01 mg/ml DNase were added and the mixture was incubated at room temperature for 20 minutes. […]

[5] = biological target: T2, recombinant human CD22 encompassing …; test: direct ELISA, plate coated with CD22d2-4
[6] = biological target: T3, human recombinant CD22 (PeproTech) (human, UniProt P20273 20-687, limits assumed); test: SPR (BIAcore), CD22 immobilized on CM5 chip, SM03 injected
T3 construct: Bought protein immobilized on a CM5 chip; also called recombinant human CD22 antigen; human CD22 antigen
Protocol: Affinity of anti-CD22 antibodies against human CD22 was performed using BIAcore (GE Healthcare Life Sciences, Piscataway, NJ) according to standard procedures. Briefly, human recombinant CD22 (20 μg/ml, PeproTech, Rocky Hill, NJ) was immobilized on carboxymethylated dextran-coated CM5 sensor chip. The chip surface was firstly activated with N-ethyl-N′-(3-[…]) carbodiimide hydrochloride (EDC) and N-hydroxysuccinimide (NHS). […] The dissociation was studied by washing with running buffer for 3 min. The chip surface was then regenerated by injection with 50 mM glycine-Cl for 60 s. Kinetic parameters including ka (association rate constant) and kd (dissociation rate constant) were estimated using the BIA evaluation software. The specific binding curves were normalized by subtracting the control curve.

T1 sequence (VH, as listed by the source, chain 1 of 2): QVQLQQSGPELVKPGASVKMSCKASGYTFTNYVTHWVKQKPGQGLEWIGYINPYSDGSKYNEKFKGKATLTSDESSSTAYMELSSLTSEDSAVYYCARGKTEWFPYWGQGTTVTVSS
T1 sequence (VL, as listed by the source, chain 2 of 2): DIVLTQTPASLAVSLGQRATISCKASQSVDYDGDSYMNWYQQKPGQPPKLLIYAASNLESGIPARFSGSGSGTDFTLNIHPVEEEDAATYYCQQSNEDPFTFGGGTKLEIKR
Sequence of LRID Fab fused to the GPI signal sequence from decay accelerating factor (DAF), on SP2/0 cells (Fab-GPI) (VH, as listed by the source, chain 1 of 2): as the sequence (VH, as listed by the source, chain 1 of 2) above
Sequence of LRID Fab fused to the GPI signal sequence from decay accelerating factor (DAF), on SP2/0 cells (Fab-GPI) (VL, as listed by the source, chain 2 of 2): as the sequence (VL, as listed by the source, chain 2 of 2) above
Sequence of LRID Fab fused to the transmembrane portion of glycophorin A, on SP2/0 cells (Fab-GlycoA) (VH, as listed by the source, chain 1 of 2): as the sequence (VH, as listed by the source, chain 1 of 2) above
Sequence of LRID Fab fused to the transmembrane portion of glycophorin A, on SP2/0 cells (Fab-GlycoA) (VL, as listed by the source, chain 2 of 2): as the sequence (VL, as listed by the source, chain 2 of 2) above

B1: SM03 (antibody, V domains shown)
VH: QVQLQESGGGLVKPGGSLKLSCAASGFAFSIYDMSWVRQTPEKRLEWVAYISSGGGTTYYPDTVKGRFTISRDNAKNTLYLQMSSLKSEDTAMYYCARHSGYGSSYGVLFAYWGQGTLVTVSS
VL: DIQLTQTTSSLSASLGDRVTISCRASQDISNYLNWYQQKPDGTVKLLIYYTSILHSGVPSRFSGSGSGTDYSLTISNLEQEDFATYFCQQGNTLPWTFGGGTKLEIKR
notes: Chimeric antibody against human CD22: murine variable regions with human constant regions; The embodiments speak of an IgG1 heavy chain and kappa light chain constant region; also called anti-CD22 antibody SM03; chimeric anti-CD22 antibody
[1]
  CMC killing of surrogate target cells, EC50: 220 µg/mL
[2]
  CMC killing of surrogate target cells, EC50: 130 µg/mL
[3]
  EC50: 0.08 µg/mL
[4]
  EC50 (read off the curve): ~0.02 µg/mL
[5]
  EC50: 0.1 µg/mL
[6]
  Ka: 8.2e+08 M⁻¹
  Kd: 1.22 nM
  koff: 0.0137 s⁻¹
  kon: 1.13e+07 M⁻¹ s⁻¹

B2: SM06 (antibody, V domains shown)
VH: EVQLVESGGGLVQPGGSLRLSCAASGFSFSIYDMSWVRQAPGKGLEWVAYISSGGGTTYYPDTVKGRFTISRDNAKNSLYLQMNSLRVEDTALYYCARHSGYGSSYGVLFAYWGQGTLVTVSS
VL: DIQLTQSPSSLSASVGDRVTISCRASQDISNYLNWYQQKPGKAPKLLIYYTSILHSGVPSRFSGSGSGTEFTLTISSLQPEDFATYFCQQGNTLPWTFGGGTKVEIKR
notes: Framework-patched (humanized) anti-CD22 antibody with human constant regions; also called framework-patched (humanized) version of SM03
[3]
  EC50: 0.065 µg/mL
[5]
  EC50: 0.14 µg/mL
